Test results: publication PMC7048932, “Examining sterically demanding lysine analogs for histone lysine methyltransferase catalysis” (Scientific Reports, 2020)
One block for each binder: values may come before it.

Key:
[1] = substrate: C[C@H](N)C(=O)N[C@@H](CCCNC(=N)N)C(=O)N[C@H](C(=O)N[C@@H](CCCCN)C(=O)N[C@@H](CCC(N)=O)C(=O)N[C@H](C(=O)N[C@@H](C)C(=O)N[C@@H](CCCNC(=N)N)C(=O)N[C@@H](CCC1CC1N)C(=O)N[C@@H](CO)C(=O)N[C@H](C(=O)NCC(=O)NCC(=O)N[C@@H](CCCCN)C(=O)N[C@@H](C)C(=O)O)[C@@H](C)O)[C@@H](C)O)[C@@H](C)O; assay: Enzyme kinetics of G9a-catalyzed methylation (MALDI-TOF MS); type: biochemical, human; conditions: other: G9a-catalyzed methylation, MALDI-TOF MS assay; pH 8.0; 37.0 °C
Procedure: To establish the substrate efficiency of lysine- and KCP-containing histone peptides, we carried out enzyme kinetics analysis, employing the MALDI-TOF MS assays[22].
MALDI-MS methyltransferases activity experiments were performed using a Bruker instrument in the reflectron positive mode. For regular methyltransferase standard conditions experiment which carried out in 30 µL total volume, the mixture contains peptide (100 µM), SAM (200 µM), SETD8 or SETD7 (2 µM), in assay buffer 50 mM Tris at optimal pH 8.0. In case of G9a and GLP, similar conditions were used, except (500 µM) of SAM was added to the reaction mixture. Samples were incubated in an Eppendorf vial 1.5 mL using thermomixer for 1 h at 37 °C. A 5 µL aliquot of the solution was mixed with 5 µL of MeOH, after which 5 µL of this mixture was mixed with 5 µL of α-cyano-4-hydroxycinamic acid matrix (CHCA, 5 mg/mL in 125:125 µL acetonitrile/water). The spots were placed on a stainless steel MALDI plate (MS 96 target ground steel BC of Bruker, Germany). The mass corresponding to one monomethylation observed as +14 Da, dimethylation observed as +28 Da and trimethylation observed as +42 Da. The enzymatic activity was determined by taking the peak areas of each methylation state, including all isotopes and adducts, and was annotated using FlexAnalysis software (Bruker Daltonics, Germany). […] Methylated peptide substrates were repeated five times and the unmethylated substrates were triplicated.

SETD7 (human) = target: T1, SETD7 (human) (UniProt Q8WTS6)
T1 sequence: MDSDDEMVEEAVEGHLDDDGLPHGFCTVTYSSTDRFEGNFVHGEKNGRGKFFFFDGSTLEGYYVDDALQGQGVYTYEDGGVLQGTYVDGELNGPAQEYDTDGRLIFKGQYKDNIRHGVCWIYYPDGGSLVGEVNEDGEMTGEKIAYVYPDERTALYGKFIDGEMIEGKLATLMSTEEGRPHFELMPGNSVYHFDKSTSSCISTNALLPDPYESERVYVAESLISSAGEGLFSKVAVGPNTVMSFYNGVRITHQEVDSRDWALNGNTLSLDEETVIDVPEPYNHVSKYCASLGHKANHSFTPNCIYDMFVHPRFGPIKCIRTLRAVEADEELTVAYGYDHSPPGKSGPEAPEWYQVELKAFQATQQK

G9a (human) = G9a (human) (UniProt Q96KQ7)
GLP (human) = GLP (human) (UniProt Q9H9B1)
Sequence of GLP (human) (Q9H9B1 whole entry): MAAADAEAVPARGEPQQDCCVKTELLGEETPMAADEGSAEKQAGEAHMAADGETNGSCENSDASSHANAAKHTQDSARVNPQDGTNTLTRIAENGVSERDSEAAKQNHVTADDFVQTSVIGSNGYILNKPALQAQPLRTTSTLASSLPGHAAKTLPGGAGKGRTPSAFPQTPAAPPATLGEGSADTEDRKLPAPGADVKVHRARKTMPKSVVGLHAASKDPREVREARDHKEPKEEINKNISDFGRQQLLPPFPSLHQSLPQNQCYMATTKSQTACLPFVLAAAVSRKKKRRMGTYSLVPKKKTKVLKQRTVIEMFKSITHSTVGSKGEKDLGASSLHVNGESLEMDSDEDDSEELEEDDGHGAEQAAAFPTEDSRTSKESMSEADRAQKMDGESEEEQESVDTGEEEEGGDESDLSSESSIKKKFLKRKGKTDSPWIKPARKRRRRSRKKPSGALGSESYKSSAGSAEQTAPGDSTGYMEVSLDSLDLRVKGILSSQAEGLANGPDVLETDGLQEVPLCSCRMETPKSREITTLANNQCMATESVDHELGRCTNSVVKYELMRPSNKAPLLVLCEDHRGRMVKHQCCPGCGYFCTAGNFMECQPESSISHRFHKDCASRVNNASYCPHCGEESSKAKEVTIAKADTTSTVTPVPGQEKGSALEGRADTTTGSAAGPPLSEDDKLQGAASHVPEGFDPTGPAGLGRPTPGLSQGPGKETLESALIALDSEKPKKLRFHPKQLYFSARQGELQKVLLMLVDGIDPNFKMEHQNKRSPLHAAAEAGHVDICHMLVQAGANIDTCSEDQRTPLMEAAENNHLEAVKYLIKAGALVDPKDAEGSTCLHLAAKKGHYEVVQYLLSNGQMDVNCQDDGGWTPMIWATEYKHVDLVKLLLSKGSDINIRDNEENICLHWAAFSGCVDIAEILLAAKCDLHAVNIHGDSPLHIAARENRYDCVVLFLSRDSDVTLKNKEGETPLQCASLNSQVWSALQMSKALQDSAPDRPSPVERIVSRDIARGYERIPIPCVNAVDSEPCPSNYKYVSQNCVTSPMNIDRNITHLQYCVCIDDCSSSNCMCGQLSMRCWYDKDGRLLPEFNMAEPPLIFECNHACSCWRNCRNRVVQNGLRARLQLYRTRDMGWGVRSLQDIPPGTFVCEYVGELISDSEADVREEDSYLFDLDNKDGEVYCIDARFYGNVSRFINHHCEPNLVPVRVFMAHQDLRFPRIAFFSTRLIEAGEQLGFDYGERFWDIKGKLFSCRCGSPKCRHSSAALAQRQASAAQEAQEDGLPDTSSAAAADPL

B1: G9a (Homo sapiens) (protein)
chain: MAAAAGAAAAAAAEGEAPAEMGALLLEKETRGATERVHGSLGDTPRSEETLPKATPDSLEPAGPSSPASVTVTVGDEGADTPVGATPLIGDESENLEGDGDLRGGRILLGHATKSFPSSPSKGGSCPSRAKMSMTGAGKSPPSVQSLAMRLLSMPGAQGAAAAGSEPPPATTSPEGQPKVHRARKTMSKPGNGQPPVPEKRPPEIQHFRMSDDVHSLGKVTSDLAKRRKLNSGGGLSEELGSARRSGEVTLTKGDPGSLEEWETVVGDDFSLYYDSYSVDERVDSDSKSEVEALTEQLSEEEEEEEEEEEEEEEEEEEEEEEEDEESGNQSDRSGSSGRRKAKKKWRKDSPWVKPSRKRRKREPPRAKEPRGVNGVGSSGPSEYMEVPLGSLELPSEGTLSPNHAGVSNDTSSLETERGFEELPLCSCRMEAPKIDRISERAGHKCMATESVDGELSGCNAAILKRETMRPSSRVALMVLCETHRARMVKHHCCPGCGYFCTAGTFLECHPDFRVAHRFHKACVSQLNGMVFCPHCGEDASEAQEVTIPRGDGVTPPAGTAAPAPPPLSQDVPGRADTSQPSARMRGHGEPRRPPCDPLADTIDSSGPSLTLPNGGCLSAVGLPLGPGREALEKALVIQESERRKKLRFHPRQLYLSVKQGELQKVILMLLDNLDPNFQSDQQSKRTPLHAAAQKGSVEICHVLLQAGANINAVDKQQRTPLMEAVVNNHLEVARYMVQRGGCVYSKEEDGSTCLHHAAKIGNLEMVSLLLSTGQVDVNAQDSGGWTPIIWAAEHKHIEVIRMLLTRGADVTLTDNEENICLHWASFTGSAAIAEVLLNARCDLHAVNYHGDTPLHIAARESYHDCVLLFLSRGANPELRNKEGDTAWDLTPERSDVWFALQLNRKLRLGVGNRAIRTEKIICRDVARGYENVPIPCVNGVDGEPCPEDYKYISENCETSTMNIDRNITHLQHCTCVDDCSSSNCLCGQLSIRCWYDKDGRLLQEFNKIEPPLIFECNQACSCWRNCKNRVVQSGIKVRLQLYRTAKMGWGVRALQTIPQGTFICEYVGELISDAEADVREDDSYLFDLDNKDGEVYCIDARYYGNISRFINHLCDPNIIPVRVFMLHQDLRFPRIAFFSSRDIRTGEELGFDYGDRFWDIKSKYFTCQCGSEKCKHSAEAIALEQSRLARLDPHPELLPELGSLPPVNT
notes: His6 (N); made in house; host or cells: E. coli BL21 (DE3)pLysS-rosetta
- Km [1]: 22.6 ± 5.0 µM
- kcat [1]: 0.0463 ± 0.0005 s⁻¹
- kcat/Km [1]: 2070 M⁻¹ s⁻¹

- IC50 of inhibition of SETD7 (100 nM) methylation of a 21-mer H3 peptide (residues 1–21, 5 µM) with SAM (20 µM), MALDI-TOF MS (SETD7 (human)): > 100 µM
Binder: ARTYQTARKSTGGKA [H3K4 analog histone peptide with tyrosine (Y) at position 4]

- IC50 of inhibition of G9a (100 nM) methylation of a 21-mer H3 peptide (residues 1–21, 5 µM) with SAM (20 µM), MALDI-TOF MS (G9a (human)): > 100 µM
- IC50 of inhibition of GLP (100 nM) methylation of a 21-mer H3 peptide (residues 1–21, 5 µM) with SAM (20 µM), MALDI-TOF MS (GLP (human)): > 100 µM
Binder: ARTKQTARYSTGGKA [H3Y9 histone peptide]
